Laboratory results reported in the supplement of paper PMC10126150.
± gives the standard deviation of the averaged measurements.

Test system: ATP
Test: switch fluorescence ratio, 500 uM ATP over buffer (Cy3 cluster intensity, sum of 5 cycles each) (fold (ratio)); higher = stronger signal-on switching upon ATP binding; sequences stand for … in TCGTCGGCAGCGTCAGATGTGTATAAGAGACAGTTTTTTTTTTTTTTTTTTTTTTTTT…TC
Settings: aptamer strand: ATP DNA aptamer (quencher-CACCTGGGGGAGTATTGCGGAGGAAGG + anchor), 100 nM annealed; ATP concentration: 500 uM
How it was run: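 Cy3-labelled switching-strand clusters on a modified Illumina MiSeq flow-cell were annealed to 100 nM quencher-labelled ATP aptamer and imaged first in selection buffer, then after 15 min with 500 uM ATP at 22 °C. NaOH stripping and re-annealing separated each of five buffer/ATP cycles, and clusters outside 100-1000 RFU were excluded. The fluorescence ratio sums target-cycle Cy3 intensity over buffer-cycle Cy3 intensity per cluster and averages it per switch-domain sequence.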
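Note: ATP exposure 15 min at 22 °C before imaging.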

Sequence	switch fluorescence ratio
TTTCCGTTGA	1.23 ± 0.32
AAGGGTGAC	1.01 ± 0.032
GGTCGTTTTG	0.991 ± 0.025
CCATTTTTTG	0.993 ± 0.028
TCCCCGCGCT	1.25 ± 0.37
TGAAGGGTTC	1.12 ± 0.24
ATGGAGGGGA	1 ± 0.021
AGATGAGGAA	1.004 ± 0.01
ATGGCAACAT	1.01 ± 0.041
TTTGCAATAA	2.35 ± 1.7
GGAAGAAAAA	1.01 ± 0.067
GCGCTTGCTC	1.13 ± 0.013
TTTTAGTACC	1.018 ± 0.0081
CTGAAGGAGG	0.971 ± 0.037
TTATAGGGTT	0.991 ± 0.041
GGGCAGGGAG	1 ± 0.017
AATTGTGAGT	0.985 ± 0.024
TGCTTTGGTT	1.01 ± 0.055
GGGGGAAATT	1.03 ± 0.015
CTAAGATCGG	1 ± 0.02
AGGGGTGGAA	0.975 ± 0.022
GGATGGGGGC	0.992 ± 0.023
GTGGGGGCGG	1.01 ± 0.022

Sequence	switch fluorescence ratio
GTTATAGTGG	0.981 ± 0.01
ACATAGCGAA	1.13 ± 0.026
TATGCGATTG	1.04 ± 0.019
ATTATTGGTA	0.987 ± 0.012
AAGTCGAGTC	0.996 ± 0.018
AAGGGTTTTT	0.994 ± 0.025
AATCGCTCTT	1.007 ± 0.0062
TTCAAGGCGG	1.01 ± 0.014
TCCAGACAGT	0.984 ± 0.026
GATGGGGGGG	1 ± 0.028
AATAGGGAGC	0.997 ± 0.041
ACGATGGGGA	1.04 ± 0.034
GGGAATCGTA	1.04 ± 0.015
TTGAGTCCGT	1.05 ± 0.075
CATGCATTTT	1.09 ± 0.079
ACCCTTTTTG	0.986 ± 0.025
ACAAAACGTT	1.028 ± 0.0078
TGAGAAGTTG	1.01 ± 0.066
TTAAGAGGTT	0.9708 ± 0.0065
GTTCTGGGAG	1 ± 0.012
ATTATTTGCC	0.99 ± 0.01
GTCGTTGTTC	1.03 ± 0.027
GGGACAAGAT	0.999 ± 0.026

Sequence	switch fluorescence ratio
AAGAAGCAGA	1 ± 0.032
AGATGCAGCT	0.976 ± 0.033
ACTTAAATTA	1.03 ± 0.036
GCGGGCACCA	0.995 ± 0.024
GATAGAATGA	1.014 ± 0.0096
GCGTATTCTA	1 ± 0.033
GAGGAGAATT	0.983 ± 0.018
GGGTAGCGCT	0.969 ± 0.039
CCTTAGTGTT	1.03 ± 0.015
CAAAGTTAAC	0.949 ± 0.0098
TGGTGGGATG	0.977 ± 0.021
TTCTGGGTTT	1.01 ± 0.025
AGGAGGTAAA	1.002 ± 0.0034
TAGTATTAGA	0.993 ± 0.031
TCGATTTTGG	1 ± 0.029
AATAGCTCGG	0.9867 ± 0.0047
GCGATGAATC	1.04 ± 0.04
TACGAGGTGT	1.06 ± 0.027
AACGTGAGGG	0.989 ± 0.051
GGTCGGGGTG	1.09 ± 0.069
GGAAGAAAAC	1.008 ± 0.0045
AAAACACGTA	1.13 ± 0.035
TTGTAAATT	1.02 ± 0.043

Sequence	switch fluorescence ratio
TGTTATAGAC	1.05 ± 0.041
ACATTTCAAA	0.987 ± 0.0069
AGGGTCACTC	0.9857 ± 0.0043
GCTGAGGCAG	1.002 ± 0.0046
TTTAAGTGCG	1.05 ± 0.09
AGTGGAGTCA	1.02 ± 0.035
ATAGGAACGT	1.08 ± 0.1
TAACAACGTA	1.066 ± 0.0064
TAAGAGTTC	0.99 ± 0.034
GTCAGCCTTT	0.983 ± 0.025
GTTCAAAGGT	0.96 ± 0.032
ATTTGGATGT	1 ± 0.026
TTTGGAGGGA	1.48 ± 0.8
GGGAAGACGA	1.01 ± 0.014
GTTTGGATCG	1 ± 0.015
GGATGAGCTG	0.978 ± 0.052
GGGGGGGTC	0.979 ± 0.019
TTCAAGGGTG	1.11 ± 0.024
TGTGGGGGGC	1 ± 0.038
AATTTGACGT	0.981 ± 0.034
TCCGATTGAA	1.08 ± 0.011
TCATATGGTT	0.999 ± 0.019
GGTGTCTGGT	1.001 ± 0.0061

Sequence	switch fluorescence ratio
AAAAAAGAAT	0.9938 ± 0.0096
AGGGGCGGTT	0.978 ± 0.02
TAGTTGGTGG	0.954 ± 0.046
TATACTGTTG	0.976 ± 0.021
TTTACGTCGG	1.02 ± 0.034
TGGGGGAAAT	1.25 ± 0.74
CAGTAGGGCA	0.982 ± 0.041
GTTAATGGAA	0.986 ± 0.039
GATGTCCCCA	0.959 ± 0.013
AAGCAGTCA	1.01 ± 0.038
CAGGTGGTGT	1.11 ± 0.066
CGAATATAAA	0.994 ± 0.054
GGCATAGGTA	1.01 ± 0.012
ATAAGCGCGT	0.999 ± 0.017
TGTGGTCTGT	0.981 ± 0.033
TTCACCACTT	1.01 ± 0.025
TACTAAGAGA	1.03 ± 0.029
CTGTGGATGG	1.01 ± 0.041
GAAAAATGAC	0.999 ± 0.021
GGAATTATAA	0.99 ± 0.027
ATGATCTGAG	1.028 ± 0.005
GGGTCCATGC	1.01 ± 0.018
ATTAGTCAAT	1.0167 ± 0.0006

Sequence	switch fluorescence ratio
GGGGTTTGAA	0.984 ± 0.016
CGGCGTTATG	0.988 ± 0.014
GAGATGAGCG	0.997 ± 0.035
CAGTCGACTG	1.01 ± 0.019
AAATGACGGG	1.005 ± 0.0076
TGACTTAGTG	1.03 ± 0.016
ATAGATTAGG	0.9854 ± 0.0092
ATCTGTGAAC	1.05 ± 0.073
GGGTATTGAG	0.991 ± 0.012
GCGTAAATTG	0.9923 ± 0.0053
AGATTCTGGG	0.971 ± 0.016
CTGACGGCTT	1.056 ± 0.0068
CGGAAGCGTG	0.984 ± 0.016
TTGGTTGTTA	1.01 ± 0.041
AAGTTATGCT	1 ± 0.014
GTAGTCACGA	1.01 ± 0.048
CAGAAGTCCA	0.991 ± 0.052
GAGACAATTC	1.06 ± 0.017
GAAAGGGGCC	1.01 ± 0.066
TCGGTGTCTA	0.985 ± 0.02
ACGGGTAAAT	1.01 ± 0.036
TGGGAACACT	1.01 ± 0.033
CGTTGAGGAC	1.024 ± 0.0053

Sequence	switch fluorescence ratio
AATCGCTTTG	1.014 ± 0.0029
CTATTTAGAT	0.984 ± 0.011
TCGTGTGACT	0.98961 ± 8.7e-05
ATGTGAGCGG	1.01 ± 0.038
GTGTTTCCTT	1.02 ± 0.036
GTTCAAATCA	0.997 ± 0.047
ATGATTACGC	1.06 ± 0.015
GTTGACCGGT	1 ± 0.016
GGTGAAGAGG	0.9791 ± 0.0061
TTCGTACAT	1.13 ± 0.22
AAGAAAACGA	0.998 ± 0.011
CTTTGTTGGT	0.9831 ± 0.0082
GAAAGGAAAA	0.975 ± 0.016
GAAGGGGGAT	1.02 ± 0.051
TAGCATGGTA	0.976 ± 0.049
ACATTGTGTA	0.9955 ± 0.0068
TTTCGCCATT	1.3 ± 0.46
TAGTACTGTG	0.998 ± 0.017
TGTAGTTGGT	1.014 ± 0.0096
